Assay results as given in publication PMC4533773 (International Journal of Molecular Medicine, 2015).

Biological target: T1, AIM (analyte of the BLI experiment) (UniProt Q9QWK4 22-352)
T1 sequence (looked up): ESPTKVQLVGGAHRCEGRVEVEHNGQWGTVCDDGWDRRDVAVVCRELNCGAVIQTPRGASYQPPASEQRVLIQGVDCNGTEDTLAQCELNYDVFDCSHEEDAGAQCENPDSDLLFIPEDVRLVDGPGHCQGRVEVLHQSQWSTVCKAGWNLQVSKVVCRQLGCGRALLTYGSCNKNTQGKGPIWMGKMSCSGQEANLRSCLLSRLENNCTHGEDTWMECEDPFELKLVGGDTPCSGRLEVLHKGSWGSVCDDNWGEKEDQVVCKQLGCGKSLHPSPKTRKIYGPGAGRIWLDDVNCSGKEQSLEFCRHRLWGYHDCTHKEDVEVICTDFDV
Experiment: BLI

B1: Biotinylated IGFBP-4 (natural protein, UniProt P47879 22-254, looked up)
chain: DEAIHCPPCSEEKLARCRPPVGCEELVREPGCGCCATCALGLGMPCGVYTPRCGSGMRCYPPRGVEKPLRTLMHGQGVCTELSEIEAIQESLQTSDKDESEHPNNSFNPCSAHDHRCLQKHMAKIRDRSKMKIVGTPREEPRPVPQGSCQSELHRALERLAASQSRTHEDLFIIPIPNCDRNGNFHPKQCHPALDGQRGKCWCVDRKTGVKLPGGLEPKGELDCHQLADSFQE
modifications: biotin (labelled after purification; sites not stated)
- Kd: 25.3 nM
- koff: 0.000999 s⁻¹
- kon: 39600 M⁻¹ s⁻¹
